{"source": "IntAct's records for PubMed 22613832", "parents": {"B1": {"name": "Ras-related protein Rab-11B (Homo sapiens), Q15907 (parent)", "chain": "MGTRDDEYDYLFKVVLIGDSGVGKSNLLSRFTRNEFNLESKSTIGVEFATRSIQVDGKTIKAQIWDTAGQERYRAITSAYYRGAVGALLVYDIAKHLTYENVERWLKELRDHADSNIVIMLVGNKSDLRHLRAVPTDEARAFAEKNNLSFIETSALDSTNVEEAFKNILTEIYRIVSQKQIADRAAHDESPGNNVVDISVPPTTDGQKPNKLQCCQNL", "partner": "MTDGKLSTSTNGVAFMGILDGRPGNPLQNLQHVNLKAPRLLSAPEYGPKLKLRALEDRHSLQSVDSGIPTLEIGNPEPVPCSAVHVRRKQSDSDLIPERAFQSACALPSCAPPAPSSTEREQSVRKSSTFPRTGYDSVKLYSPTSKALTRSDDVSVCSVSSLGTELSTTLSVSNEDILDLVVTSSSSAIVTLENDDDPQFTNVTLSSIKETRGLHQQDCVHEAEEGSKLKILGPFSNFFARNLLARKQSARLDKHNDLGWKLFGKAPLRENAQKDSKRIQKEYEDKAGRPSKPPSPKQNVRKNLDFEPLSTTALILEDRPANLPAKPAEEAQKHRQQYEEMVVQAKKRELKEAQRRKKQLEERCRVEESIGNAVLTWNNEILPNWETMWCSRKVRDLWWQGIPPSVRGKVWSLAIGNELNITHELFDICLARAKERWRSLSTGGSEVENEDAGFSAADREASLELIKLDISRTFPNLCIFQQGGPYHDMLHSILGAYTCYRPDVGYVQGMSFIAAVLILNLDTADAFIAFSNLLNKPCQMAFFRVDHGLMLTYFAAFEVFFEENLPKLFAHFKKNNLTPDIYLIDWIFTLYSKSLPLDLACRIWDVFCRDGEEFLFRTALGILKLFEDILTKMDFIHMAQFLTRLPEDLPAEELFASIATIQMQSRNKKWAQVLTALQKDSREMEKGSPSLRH"}}}
{"variants_of": "B1", "details": "with tbc14_human TBC1D14, Q9P2M4"}
{"variant": "Q70A", "effect of a mutation on the interaction": "increasing interaction strength"}
{"variant": "S25N", "effect of a mutation on the interaction": "decreasing interaction strength"}
